Test results reported in US20240026407A1, “MODIFICATION OF SAPONINS” (GLAXOSMITHKLINE BIOLOGICALS SA, priority 2020, published 2024).

Legend:
Assay type in all cases: biochemical, Quillaja saponaria
[1] = Experiment 5-1: screening of additional glucosidases for deglycosylation with purified QS-18 (0.04 mg/ml) at pH 7.5 and 30 deg C; settings: pH 7.5, 30 degrees C, 18 hours, LCMS/MS
Protocol: The 94 additional genes, together with positive control (DNA encoding SEQ ID No. 262) and negative control, were transformed, expressed, lysed and reacted in the same manner as described above for Experiment 4-1, except the reaction was incubated at 30 degrees C. for 18 hours.
Samples were analysed by LCMS/MS according to the procedure in Experiment 4-1.

[2] = Experiment 5-2: screening of additional glucosidases for deglycosylation with QS-18 in crude bark extract (80%) at pH 6 and 35 deg C; settings: CBE 80%, pH 6, 35 deg C, 18 hours; UV HPLC
Method in brief: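 Deglycosylation of QS-18 was monitored by UV HPLC after MeCN/AcOH quench with hexanophenone. The reaction ran 18 hours at 35 deg C, shaking, combining clarified pH 6 lysate with crude bark extract neutralised to pH 6 by NaOH.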

[3] = Experiment 5-3: screening of additional glucosidases for deglycosylation with QS-18 in treated bark extract (80%) at pH 6 and 35 deg C; settings: TBE 80% (QS-21 approx. 4 g/L), pH 6, 35 deg C; UV HPLC
Protocol: Experiment 5-1 was repeated, replacing CBE with Treated Bark Extract (TBE) at pH 6. TBE was prepared from CBE by PVPP treatment and concentration, to provide TBE with a QS-21 concentration of approximately 4 g/L. TBE was adjusted to pH 6 by dropwise addition of 2M NaOH with stirring.

B1: 875 (protein, listed as Exophiala spinifera)
chain: MGSYSGSQQGFESIISGLTVEEKATLLSGADFWTTSPVTRVGIPALKVSDGPNGARGGHFQGKTTSACFPASVSLAASFDREFAYKIGRALGQETKTKGAHVLLGPTVCHHRDPRGGRNFESFSEDPLLAGELASEWIAGLQSEGVGATVKHYAVNEQETRRFTIDARVDQRALREIYLKPFEIAVKRADPWAIMTSYNLVNGKHADEHKELITDILRGQWGFKGLVMSDWGGTNSVAPSLNAGHDLEMPGPPLKRTVDNIQRALQTGELTEDTLNQRVGNVLKLLQRAGKFENPEIAEEQAVDLPEHRSLIRQAAAESMVLLKNTNNILPLKSTNTKSIALLGLAREYLGHGGGSASVNSHHKVTAYEALQAAVGSSVQLNYAEGARIVRNLSPLSENVYNEEGVPGFTMKTFSKLNGDNPTVSTVPSSVYRTLEPSSIDQMTLLGTFKPKTSGLHYISLSTLGGTRVYINDELVFDYSNSQTTDIMAFLIGSPGEDKKRYLFTAGESYRIRIEAKATKDTISGFSLFTKEAIGFSLGFALESEHDADLLTAAIEAAKSSDVAVVFVGHTPIWESEGADRSGMDLPKDGSLDALVVAAAKVNPNTVVVNSTGSAISMPWIEDVAAVVQAWFPGQEAGHSIADVLLGKVTPSGKLPVTFPRAITDVPSYENFPGDIKNEVVHYKESIYTGYRHFDRRPEGVLFPFGFGLSYTTFDVVVTSVSRTKLRNHETLTVSADVTNTGTTEGAEVVQVYVGAGEGTSAIDRPAKELAGFAKVHLRPGEARKVAITFGRDSVAYWNESRDKWSVDKGAYTIYVGTSSVDIAGKLEVEVPEAFDFDP
Experiment 5-1 % conv [1]: 4.7% | Experiment 5-2 % conv [2]: <0.5% | Experiment 5-3 % conv [3]: <0.5%

B2: 862 (protein, listed as Bifidobacterium thermacidophilum)
chain: MDATTGTNKAPAPAQARQGNGRGGNEGRNASEIRHRVDDLTLEQKASLTSGADAWHVQGIDECGIPGYMITDGPHGLRKARPAEEQKTGLGDAVPVTCFPPAAGLSSSWDPGLVREVGEAMGEECIQEKVAVILGPAVNIKRNPLGGRCFEYWSEDPFLAGHEAVGIVEGVQSKGVGTSLKHFAANNQETDRLRISATISPRALREIYLPAFEYIVKTAQPWTVMCSYNRINGVHSAQNRWLLTDVLRREWGFQGIVMSDWGADHDRVASLNAGLNLEMPPSGTDDQIVAAVRDGRIAPEQLDSMAQGMIDLVAKAQPAMSRDGYRYDRDRHYDIARRAARESMVLLKNEQGTLPVRPGVRVAVIGEFARTARYQGGGSSHITPDRMSSFLDATARRGEQVDFAPGFTLDLDPADPVLEAQAIETARHADIVLMFMGLPEAAESEGFDRTSLDIPAKQTSLLHKISAVNPHVAVILSNGSVVSVAPWCDDAQAILESWLLGEAGGDALADVVFGDVSPSGKLAQTIPLDINDDPTMLNWPGEEGHVDYGEGVFVGYRYYDTYRKPVAYPFGFGLSYATFDVHDARVRRLGVDDAARVAAERAAGDAAQGNDVARADGAAHVDGACGAVVRVDATVTNTSDAPGAQVVEIYVAPGKSQVARPVHELKGFARVDLAPGESKAVSITLDERAFAYWSQRFDDWHVEAGDYTVEVGTSSRDIVARIPAHLDGDGKTMPLDEWSTFGEWAADPVGARVVEAVGREADQGRLPRLPQNGVMRIFLMAAPVNSLQMILGEEGLEVARFMLDEYRRIRG
Experiment 5-1 % conv [1]: 4.2% | Experiment 5-2 % conv [2]: <0.5% | Experiment 5-3 % conv [3]: <0.5%

B3: 864 (protein, listed as Stagonospora sp.)
chain: MPYKVNDESREGEGLNALLGALTLDEKISLLSAKNIWETPEVERVGIPSLKVTDGPNGARGGEFFDGTTAACFPACVSLAATFDRALSRQVGRALGQEAITKGAYVVLGPTVCCHRSPLGGRNFEAFSEDPVLSGALASEYVKGLQEERVAATVKHFLANEQDTRRFSVDQTISERALREIYLKPFEIVAKQADPWCFMSSYPKINGKHVDAQSKFLIDILRKEWGYEGMVMSDWGAASTVEGIKYGLDMEMPGPPRQREANLVRNAVKKGQISEGDIDARVLSTLNLLKKVGKFSDRKDTPKEQAIDRPEHRALIRKAGREGIVLLKNQNNILPIDIKKTQKVALLGPLAKYAAAHGGGSASLNCHYKITPYDAFTERLGKDVEITHSKGAHIFRVYPDLDAGCKNAHGNVGFLAEYFMEGDIEPSSVPFRIEEFPRGSFNTLMNTNVTGCKSVRFTTTYRPPVTGKHYLSFSGLGPSHLSINGVMVAEQKNSTKDAMSFFLGVQEEERVQFDFDAAKTYDLIMETHPSPTNNAELYLMEGQTSIHLGFIAQAEMEQDVLAEAVDLAKDADLAIVFVGNTTQWETEGQDLSSMTLPADGSQDNLIASVVAANPKTIVVNTTGVPVELPWLDDVPAFLQAWYAGQETGNAILDVLLGEMSPSGKLPISWPKKYEHTGCYGNFGLDSFDSRKVEYVEGVFVGYRWFDRQWGHDKEVRFPFGYGLSYTEFSITDTRISGSIANDKNARVTVAANVKNVGSMSGSEILQVYLEPPVEEGIDRPVKGLVGFVKVELQPKEEKTVEVVFARDAAAFWDEAANEWAVSMGLHHIVVATSAAPVDIKARLELHVENAFKFDP
Experiment 5-1 % conv [1]: 3.9% | Experiment 5-2 % conv [2]: <0.5% | Experiment 5-3 % conv [3]: <0.5%

B4: 848 (protein)
chain: MTLEEKVSMVAGADAWHSTGVERLGIPAIKVTDGPNGARGGDFGGGVGSACFPVGVCLGSTWNTALIERVGQALGQEVQSKQAHILLAPTVNIHRSPLNGRNFECYSEDPYLTARIAAAYITGVQKQGVGACIKHFVCNDSEFERHSISSEVGERALREIYLPPSETAVREAGVWAVMSAYNKLNGTYCSENPYTLLEILKGEWGFEGIVISDWGGTYSTVEAAANGLDLEMPGPARWMGEKLLQAMRDGQVSGPKKLGEAVDDKVRRLLWTIEKAGAQLGPEPPEQAIDRPEHRALIRQAAGEGIVLLKNDGVLPLDGARVKRIAVIGPNAAEAKIMGGGSAQVKAHYAVSPLDGIRARAGEAVDVQCALGCTNYREIPELKTEWLTPVGGGESGWTVAYYNNLDLAGDPVRAETTDRTRMMWFGQVAPGVDRECFSARLSGTLTVPQSGTYTLSLNSAGVSRIAIDGELVLDNWTDYRPSRGPFDRDRKVPTAEVELTAGQGYTFVVEYSKQQSPRFAMLRVGCLPAQPADLMERAVQAAAKADVALVFIGTSGEWESEGFDRPDMELPGRQVELLEAVAAANPNTVAVLNTGSPVSVRWLDKVAALVEAWFPGQECGNAIADVLFGDVNPSGRLSQTWPVRLQDNPAYINYPGENGRVLYGEGLFVGYRYYEKKQIEPRFPFGHGLSYTTFEYGALRLQSEYTLGEPIAVSVDVTNTGPVAGQEVVQLYVRDEESSLVRPEKELKAFAKLALEPGETQTVTLTLDERALSFYDDAKAGWVAEAGEFTVLVGASSRDIRCTARFTLTVPPDRS
modifications: uncultured microorganism
Experiment 5-1 % conv [1]: 3.8% | Experiment 5-2 % conv [2]: <0.5% | Experiment 5-3 % conv [3]: <0.5%

B5: 805 (protein)
chain: MLDIEKLIDEMTLEEKAGLCSGDDMWHTKAVERLGIPRIKMSDGPHGMRTFDDNGKVIPAVCFPTGSALAASFDTELVERVGAAIGEAAKTNGVHTVLGPAVNMKRSPLCGRNFEYLSEDPYLAGKLGSAMVRGIQSKGVGACPKHFAVNNQETRRMSVSADLSERTLREVYLPAFETIVKESSPHTMMCAYNRINGTYASENEHLLDEILRKEWGYQGIVMTDWSAMNRRPRALQAGLELEMPSSAGVNDEKIVEAVKAGDLSIEVLDEAVRRLLTWINAELQGRTESVCDLGVQRELAREAAGKSAVLLKNDDVLPLRKGDKIAFIGGFADKPRFEGGGSSHVSVEHMVNAIDAAKDIPNITYTEGFNTDDALSDYELVAEAVRIASEADVAVIFAGLPAAFESEGHDRTTLEIPESQNKLIAAISAVQPKTVVVFHGGSPVYMPWRKDVAAILYMYLGGQEVGSASVDLLFGDRNPSGKLAETFPLKLEDTPCYMNFPGDGNNAEYSEGIYIGYRWYDKRKIAVEYPFGFGMSYSDFIYRQIRSANSRITDTDTLKIYVDVQNRGEYAGEEIVQLYVQPSKARQGVRPVKELKGFKKMMIAPGETKTVCFELDKRSFAEYKPEISGWYAATGEYTILAGGSSDNLPLQVKVYVESTDTIPLVYNDYTTIGDLWDSGLDVNEVLDALDAKQTDLSALGLPADKMDRAIHMEEVKRGMPIHAVISMGGRDMNKIYQALLKVDGLEGKENIPL
modifications: uncultured Clostridium sp.
Experiment 5-1 % conv [1]: 3.8% | Experiment 5-2 % conv [2]: <0.5% | Experiment 5-3 % conv [3]: <0.5%

B6: 854 (protein, listed as Corynespora cassiicola)
chain: MAQESGTVHDDESLQALVGQMTLEEKIKMLSAKNVWETPEIDRLGIPSLKVTDGPNGARGGSFFDGTTAACFPSCVSLAATFNRSLSRQVGKALEQEAITKGAYVLLGPTVCCHRSPLGGRNFEAFSEDPYLSGALASEYVKGLQEERVAATVKHFLANEQDTRRFSVNEKISERALREIYLRPFEMVAKEADPWCFMSSYPKINGAHVDAQSKFLVDILRKEWGYKGLIMSDWGATSTPESVRYGLDLETPGPPRWRTTDAVTKCLADGHIEESDIDARVLATLRLLKKVGKFDDRKTTPPEQAIDRPEHRALIRKAGGEGIVLLKNNGNLLPIDTRKTKKIALLGPLAKYAAAHGGGSASLNCHYKISPYDAFVARLGGDVEITHSKGAHIFRVYPDLEASCTNARGNSGFLAEYFMSSSTTEKPFWTEEFPRGSVTTLMNTKVIGCKTLKFTTTYQPPVSGSHYLSFSGLGPSQLFINDMLVAEQKEPTKDAMGFLLGVQEEVRIQYPFSSTQSYAISMVTHPSPFSNAELYLMENQCAIHIGFIAQEEIEHDVLSEAVDLASSADLAIVFVGNTIQWETEGQDLETMTLPADGSQDNLISQVVAANPNTIVVNTTGVPVELPWVDSVPALLQAWYAGQECGNAILDVLLGEVSPSGKLPISWPKKYEHTGCYGHFGLDSFESREVEYVEGVYVGYRWFDQWWGQDKEVRFPFGFGLSYTEFDISDARISGAISGDESSQVKVSANIRNIGDRFGAETVQIYVQPPALADLGRPLKDLVGFVKVELKPGETRDITVCFQKDNVSFWNEKANQWRVCRGTYNVLIATSSDPKDAKQALRFEVEEDLDFDP
Experiment 5-1 % conv [1]: 3.7% | Experiment 5-2 % conv [2]: <0.5% | Experiment 5-3 % conv [3]: <0.5%
